Molecular target: full length human galectin-3 (hGal3), Cys173 mutated to Thr (human, UniProt P17931 1-250, Cys173 mutated to Thr)
Assay: SPR

Sequence of full length human galectin-3 (hGal3), Cys173 mutated to Thr (P17931 other isoform, or with tags, fused parts or gaps Cys173 mutated to Thr): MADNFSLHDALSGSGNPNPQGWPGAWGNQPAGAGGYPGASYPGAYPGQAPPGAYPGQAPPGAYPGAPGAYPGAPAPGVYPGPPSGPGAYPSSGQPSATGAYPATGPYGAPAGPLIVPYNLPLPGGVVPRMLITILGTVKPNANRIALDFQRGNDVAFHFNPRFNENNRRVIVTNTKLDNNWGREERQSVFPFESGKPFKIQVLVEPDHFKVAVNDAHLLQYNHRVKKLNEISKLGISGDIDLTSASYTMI

Kd: 0.31 nM
B1: GaletuzuFab-PAS200-Cys (Fab, V domains shown)
VH: QIQLVQSGAEVKKPGESLKISCKVSGYTFTDYAIHWVRQMPGKGLKWMGWINTYTGKPIYADDFKGQVIISLDKSINTAYLQWSSLKASDTAIYYCARGTMMASLDYWGQGTTVTVSS
VL: DVVMTQSPSSLSASVGDRVTITCKSSQSLVHSDGKTYLSWIQQKPGKAPKGLIYLVSKLDSGVPSRFSGSGSETDFTLTISSLQPEDSATYYCWQATHFPLTFGPGTKVDIR

From article PMC8016950 (2021)
